The nature of this data set: Standard protocol for determination of kcat and KM (continuous spectrophotometric assay, Acetyl CoA hydrolysis at 235 nm). It counts as biochemical. To be noted: purified protein, about 23° C., 0.2 mM acetyl CoA; for Kcat: 20 mM HEPES pH 6.8, 10% ethylene glycol; for Km: pH 6.8, glyphosate 0.125 to 10 mM. An outline of the steps: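 KM from initial rates over 0.125–10 mM glyphosate, fitted by Lineweaver-Burke transformation of Michaelis-Menten; kcat/KM computed as kcat divided by KM. Continuous spectrophotometric read of acetyl-CoA hydrolysis at 235 nm.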

Substitutions are numbered along the chain they refer to.

Kcat and Km data for 24 molecules are collected here from patent publication US8008547B2, “Glyphosate-N-acetyltransferase (GAT) genes” (E.I. duPont de Nemours, priority 2000, dated 2011).

For orientation: Km means the concentration of substrate that gives half-maximal velocity.

B1: SEQ ID NO: 480: GAT polypeptide (protein)
chain: MIEVKPINAEDTYELRHKILRPNQPIEACMYESDLLRGSFHLGGFYRGKLISIASFHKAEHSDLEGQNQYQLRGMATLEGYREQKAGSTLIRHAEEILRKRGADMLWCNARTSASGYYKRLGFSEHGEIFDTPPVGPHILMYKRLT
modifications: 1_4C5
notes: GAT polypeptide
B1: the Kcat was determined as 254 min⁻¹ and the Km turned out to be 930 µM.

B2: SEQ ID NO: 466: GAT polypeptide (protein)
chain: MIEVKPINAEETYELRHKILRPNQPIEACMYESDLLRGSFHLGGFYRGQLISIASFHKAEHSELQGQKQYQLRGMATLEGFREQKAGSSLIRHAEEILRNKGADLLWCNARTTASGYYKRLGFSEHGEVFETPPVGPHILMYKRIT
modifications: 1_1H1
notes: GAT polypeptide
For the molecule B2, the Kcat came to 291 min⁻¹ and the Km turned out to be 1800 µM.

B3: SEQ ID NO: 475: GAT polypeptide (protein)
chain: MIEVKPINAEETYELRHKILRPNQPLEACMYETDLLRGAFHLGGFYRGKLISIASFHQADHSELQGQKQYQLRGMATLEGYREQKAGSTLIRHAEQILRKRGADLLWCNARTSAAGYYKKLGFSEHGEIFETPPVGPHILMYKRLT
modifications: 1_2H8
notes: GAT polypeptide
As for B3, the Kcat was 141 min⁻¹ and the Michaelis-Menten constant (Km) worked out at 480 µM.

B4: SEQ ID NO: 479: GAT polypeptide (protein)
chain: MIEVKPINAEDTYELRHRILRPNQPIEACMYETDLLRGAFHLGGYYRGQLISIASFHKAEHSELQGQKQYQLRGMATLEGYREQKAGSTLIKHAEQLLREKGADMLWCNARTSAAGYYKRLGFSEQGEVFDTPPVGPHILMYKKLT
modifications: 1_3H2
notes: GAT polypeptide
Take B4: the Kcat was 128 min⁻¹ and the Km stood at 700 µM.

B5: SEQ ID NO: 477: GAT polypeptide (protein)
chain: MIEVKPINAEDTYELRHKILRPNQPIEACMYESDLLQGSFHLGGFYRGQLISIASFHQAEHSDLQGQKQYQLRGMATLEGFREQKAGSTLIKHAEEILRKKGADLLWCNARTSAAGYYKKLGFSEHGEIFDTPPAGPHILMYKKLT
modifications: 1_3D6
notes: GAT polypeptide
As to B5, the Kcat was 226 min⁻¹ and the Michaelis constant (Km) was 3500 µM.

B6: SEQ ID NO: 459: GAT polypeptide (protein)
chain: MLEVKPINAEDTYELRHRILRPNQPIEACMFETDLLRGAFHLGGFYRGKLISIASFHQAEHSDLQGQKQYQLRGMATLEGFREQKAGSTLIRHAEEILRKRGADLLWCNARTSASGYYKRLGFSEQGEIFDTPPVGPHILMYKRLT
modifications: 11_3B1
notes: GAT polypeptide
Consider B6, for which the Kcat came to 219.97 min⁻¹ and the Km worked out at 630 µM.

B7: SEQ ID NO: 463: GAT polypeptide (protein)
chain: B6 chain with R18K, T33S, R47G, Q65E, F81Y, R120K, L145I
modifications: 11_3C6
notes: GAT polypeptide
B7: the Kcat came to 184.44 min⁻¹ and the Km was 210 µM.

B8: SEQ ID NO: 464: GAT polypeptide (protein)
chain: B6 chain with L2I, A28V, F31Y, F81Y, T89S, R92K, E96Q, R120K, I129V
modifications: 11_3D6
notes: GAT polypeptide
With B8, the Kcat was 55.3 min⁻¹.

B9: SEQ ID NO: 461: GAT polypeptide (protein)
chain: MIEVKPINAEDTYELRHRILRPNQPLEVCMYETDLLRGAFHLGGFYGGKLISIASFHQAEHPDLQGQKQYQLRGMATLEGYRDQKAGSSLIRHAEQLLRKRGADLLWCNARTSASGYYKKLGFSEQGEIFETPPVGPHILMYKRIT
modifications: 11_3C12
notes: GAT polypeptide
Molecule B9 came in with a Kcat of 49.07 min⁻¹.

B10: SEQ ID NO: 465: GAT polypeptide (protein)
chain: B9 chain with I2L, L26I, P62S, D63E, R92K, Q96E, L97I, I129V, I145L
modifications: 1_1G12
notes: GAT polypeptide
Consider B10, for which the Kcat is 58.48 min⁻¹.

B11: SEQ ID NO: 460: GAT polypeptide (protein)
chain: MIEVKPINAEDTYELRHRILRPNQPIEACMFESDLLRGAFHLGGYYRGKLISIASFHQAEHSELQGQKQYQLRGMATLEGYRDQKAGSSLIRHAEQILRKRGADMLWCNARTSASGYYKKLGFSEQGEVFDTPPVGPHILMYKRIT
modifications: 11_3B5
notes: GAT polypeptide
In the case of B11, the Kcat was determined as 194.61 min⁻¹ and the Km came to 260 µM.

B12: SEQ ID NO: 462: GAT polypeptide (protein)
chain: B11 chain with R18K, F31Y, F40L, D83E, R92K, Q96E, M105L
modifications: 11_3C3
notes: GAT polypeptide
As to B12, the Kcat was determined as 214.02 min⁻¹ and the Km was determined as 220 µM.

B13: SEQ ID NO: 472: GAT polypeptide (protein)
chain: B11 chain with R18K, I26L, F31Y, G38S, Y45F, Q58K, Q96E, S115A, K120R
modifications: 1_2D2
notes: GAT polypeptide
As for B13, the Kcat came out at 124 min⁻¹ and the Km amounted to 1200 µM.

B14: SEQ ID NO: 476: GAT polypeptide (protein)
chain: B11 chain with F31Y, Y45F, E63D, D83E, Q96E, R101K, S113T, S115A, K120R
modifications: 1_3A2
notes: GAT polypeptide
With B14, the Kcat turned out to be 181 min⁻¹ and the Km came out at 800 µM.

B15: SEQ ID NO: 473: GAT polypeptide (protein)
chain: MIEVKPINAEDTYELRHRILRPNQPIEACMYESDLLRGSFHLGGFYRGKLISIASFHQAEHSDLQGQKQYQLRGMATLEGYREQKAGSSLIKHAEQLLRKKGADMLWCNARTSAAGYYKRLGFSEHGEIFETPPVGPHILMYKRIT
modifications: 1_2D4
notes: GAT polypeptide
Turning to B15, the Kcat came to 182 min⁻¹ and the Km stood at 1200 µM.

B16: SEQ ID NO: 478: GAT polypeptide (protein)
chain: B15 chain with D11E, H17Q, K49Q, D63E, S89T, Q96E, L97I, M105L, E131D
modifications: 1_3F3
notes: GAT polypeptide
As for B16, the Kcat was determined as 167 min⁻¹ and the Km stood at 1500 µM.

B17: SEQ ID NO: 471: GAT polypeptide (protein)
chain: MLEVKPINAEETYELRHKILRPNQPIEACMYETDLLRGSFHLGGFYRGQLISIASFHQAEHSDLQGQKQYQLRGMATLEGYREQKAGSTLIKHAEELLRKKGADLLWCNARTTAAGYYKKLGFSEQGEVFDTPPVGPHILMYKKIT
modifications: 1_2C4
notes: GAT polypeptide
Take B17: the Kcat amounted to 193 min⁻¹ and the Km is 800 µM.

B18: SEQ ID NO: 467: GAT polypeptide (protein)
chain: MIEVKPINAEDTYELRHRILRPNQPLEACMYESDLLRGSFHLGGFYRGKLISIASFHQAEHSELEGQKQYQLRGMATLEGFREQKAGSSLIRHAEEILRKRGADLLWCNARTTAAGYYKKLGFSEQGEIFDTPPVGPHILMYKRIT
modifications: 1_1H2
notes: GAT polypeptide
In the case of B18, the Kcat worked out at 164 min⁻¹ and the Km came to 440 µM.

B19: SEQ ID NO: 469: GAT polypeptide (protein)
chain: B18 chain with L26I, H61Q, F81Y, E83D, S89T, R92K, R101K, T113S, K120R, I145L
modifications: 1_2A12
notes: GAT polypeptide
For the molecule B19, the Kcat was found to be 229 min⁻¹ and the Km was 1300 µM.

B20: SEQ ID NO: 468: GAT polypeptide (protein)
chain: B18 chain with L15I, E63D, F81Y, E83D, E96Q, K120R, I129V, R144K, I145L
modifications: 1_1H5
notes: GAT polypeptide
In the case of B20, the Kcat amounted to 94 min⁻¹ and the Km came out at 1500 µM.

B21: SEQ ID NO: 470: GAT polypeptide (protein)
chain: B18 chain with D11E, R18K, S33T, E83D, R92K, T113S, A115S, D131E, I145L
modifications: 1_2B6
notes: GAT polypeptide
As for B21, the Kcat came to 138 min⁻¹ and the Km is 580 µM.

B22: SEQ ID NO: 474: GAT polypeptide (protein)
chain: B18 chain with I2L, S33T, F81Y, E83D, L105M, F130Y, R144K, I145L
modifications: 1_2F8
notes: GAT polypeptide
As to B22, the Kcat was 161 min⁻¹ and the Km amounted to 1900 µM.

B23: SEQ ID NO: 277: GAT polypeptide (protein)
chain: MIEVKPINAEDTYEIRHRILRPNQPLEACKYETDLLGGTFHLGGYYRGKLISIASFHQAEHPELEGQKQYQLRGMATLEEYREQKAGSTLIRHAEELLRKKGADLLWCNARTSASGYYKKLGFSEQGEVYDTPPVGPHILMYKKLT
modifications: 10_2B8
notes: GAT polypeptide
On to B23, for which the Kcat is 108.4 min⁻¹ and the Km worked out at 1100 µM.

B24: SEQ ID NO: 278: GAT polypeptide (protein)
chain: B23 chain with G37R, T39A, E80G
modifications: 10_2C7
notes: GAT polypeptide
Regarding B24, the Kcat worked out at 135 min⁻¹ and the Km is 1400 µM.
